Measurements taken from PMC12216326.

Legend:
[1] = biological target: GST-DDX39B (residues 1-428) (human) (UniProt Q13838)
[2] = biological target: GST-DDX39B (residues 1-428) (human) (UniProt Q13838); remark: listed apart in the source

Chain of UniProt Q13838 (Q13838 whole entry, the tested form may be a part): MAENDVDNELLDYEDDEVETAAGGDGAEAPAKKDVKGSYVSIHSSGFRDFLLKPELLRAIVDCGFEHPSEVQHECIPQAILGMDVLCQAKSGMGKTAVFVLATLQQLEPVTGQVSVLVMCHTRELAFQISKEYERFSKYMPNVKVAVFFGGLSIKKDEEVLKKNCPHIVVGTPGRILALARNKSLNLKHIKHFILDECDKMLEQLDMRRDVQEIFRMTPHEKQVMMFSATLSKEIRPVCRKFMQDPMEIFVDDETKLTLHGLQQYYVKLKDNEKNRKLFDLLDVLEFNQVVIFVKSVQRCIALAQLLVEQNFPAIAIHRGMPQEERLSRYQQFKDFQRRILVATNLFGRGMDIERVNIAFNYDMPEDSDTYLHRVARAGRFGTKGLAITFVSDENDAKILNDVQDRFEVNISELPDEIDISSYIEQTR

| ATPase activity of DDX39B (NADH enzyme-coupled assay with poly(A) RNA), stimulation by TREX-2.1 [1] | ATPase activity of DDX39B, stimulation by TREX-2.1-mut against wild-type TREX-2.1 (fold reduction) [2] | Substance |
| --- | --- | --- |
| 80 fold |  | TREX-2.1 complex (LENG8 residues 490-800/PCID2/DSS1) (from UniProt Q96PV6-2 490-800; Q5JVF3 1-399; P60896 1-70) |
|  | 4 | TREX-2.1-mut (LENG8 residues 490-800 with 563RLTCAP568 replaced by GGGG/PCID2/DSS1) (from UniProt Q96PV6-2 490-800; Q5JVF3 1-399; P60896 1-70) (complex) |
